Experimental findings from article PMC9987799 are described below.

What all share (test): two-hybrid; fluorescence-based mammalian two-hybrid: bait EDC4 (or a fragment) fused to the SV40 NLS forms nuclear dots in transfected HEp-2 cells; prey scored by immunofluorescence for co-localisation in nuclear dots 24 h after transfection; three transfections, at least 30 cells each, mean +/- …
For experiment [1], the target named is NLS-EDC4 (full-length EDC4, amino acids 1–1437, fused to the NLS of SV40 T antigen).
For the next experiment, the target named is GFP-NLS-EDC4(935–1437).
Experiment [2] addresses NLS-EDC4 (full-length EDC4, amino acids 1–1437, fused to the NLS of SV40 T antigen). The source holds these as a separate data set.

In experiment [1], “NLS-LSm14a (SV40 T antigen NLS fused to LSm14a) (from UniProt Q8ND56 1-463) (natural protein)” showed a percent of cells with both proteins in the nucleus that had the two in nuclear dots of 86%.

B1: CCHCR1-Myc (natural protein)
chain: MFPPSGSTGLIPPSHFQARPLSTLPRMAPTWLSDIPLVQPPGHQDVSERRLDTQRPQVTMWERDVSSDRQEPGRRGRSWGLEGSQALSQQAEVIVRQLQELRRLEEEVRLLRETSLQQKMRLEAQAMELEALARAEKAGRAEAEGLRAALAGAEVVRKNLEEGSQRELEEVQRLHQEQLSSLTQAHEEALSSLTSKAEGLEKSLSSLETRRAGEAKELAEAQREAELLRKQLSKTQEDLEAQVTLVENLRKYVGEQVPSEVHSQTWELERQKLLETMQHLQEDRDSLHATAELLQVRVQSLTHILALQEEELTRKVQPSDSLEPEFTRKCQSLLNRWREKVFALMVQLKAQELEHSDSVKQLKGQVASLQEKVTSQSQEQAILQRSLQDKAAEVEVERMGAKGLQLELSRAQEARRRWQQQTASAEEQLRLVVNAVSSSQIWLETTMAKVEGAAAQLPSLNNRLSYAVRKVHTIRGLIARKLALAQLRQESCPLPPPVTDVSLELQQLREERNRLDAELQLSARLIQQEVGRAREQGEAERQQLSKVAQQLEQELQQTQESLASLGLQLEVARQGQQESTEEAASLRQELTQQQELYGQALQEKVAEVETRLREQLSDTERRLNEARREHAKAVVSLRQIQRRAAQEKERSQELRRLQEEARKEEGQRLARRLQELERDKNLMLATLQQEGLLSRYKQQRLLTVLPSLLDKKKSVVSSPRPPECSASAPVAAAVPTRESIKGSLSVLLDDLQDLSEAISKEEAVCQGDNLDRCSSSNPQMSS
For the molecule B1, in the experiment with GFP-NLS-EDC4(935–1437), the percent of cells expressing both proteins with the two co-localized in nuclear dots was found to be 96%.

B2: mCh-NLS-XRN1(1232–1706) (domain or fragment)
chain: EFCNIWQSLQGSGKMQYFQPTIQEKGAVLPQEISQVNQHHKSGFNDNSVKYQQRKHDPHRKFKEECKSPKAECWSQKMSNKQPNSGIENFLASLNISKENEVQSSHHGEPPSEEHLSPQSFAMGTRMLKEILKIDGSNTVDHKNEIKQIANEIPVSSNRRDEYGLPSQPKQNKKLASYMNKPHSANEYHNVQSMDNMCWPAPSQIPPVSTPVTELSRICSLVGMPQPDFSFLRMPQTMTVCQVKLSNGLLVHGPQCHSENEAKEKAALFALQQLGSLGMNFPLPSQVFANYPSAVPPGTIPPAFPPPTGWDHYGSNYALGAANIMPSSSHLFGSMPWGPSVPVPGKPFHHTLYSGTMPMAGGIPGGVHNQFIPLQVTKKRVANKKNFENKEAQSSQATPVQTSQPDSSNIVKVSPRESSSASLKSSPIAQPASSFQVETASQGHSISHHKSTPISSSRRKSRKLAVNFGVSKPSE
As for B2, the percent of cells expressing both proteins with both in nuclear dots in experiment [2] came out at 94%.

B3: Myc-PATL1(398–770) (domain or fragment)
chain: KDPYANLMLQREKDWVSKIQMMQLQSTDPYLDDFYYQNYFEKLEKLSAAEEIQGDGPKKERTKLITPQVAKLEHAYKPVQFEGSLGKLTVSSVNNPRKMIDAVVTSRSEDDETKEKQVRDKRRKTLVIIEKTYSLLLDVEDYERRYLLSLEEERPALMDDRKHKICSMYDNLRGKLPGQERPSDDHFVQIMCIRKGKRMVARILPFLSTEQAADILMTTARNLPFLIKKDAQDEVLPCLLSPFSLLLYHLPSVSITSLLRQLMNLPQSAATPALSNPHLTAVLQNKFGLSLLLILLSRGEDLQSSDPATESTQNNQWTEVMFMATRELLRIPQAALAKPISIPTNLVSLFSRYVDRQKLNLLETKLQLVQGIR
In turn, B3 returned a percent of cells expressing both proteins with the two co-localized in nuclear dots in experiment [2] of 97%.
